Where two headings read alike, the source gives them in different places.
Tests used:
[1] = target: T1, HCV ORFs (Gal4-DB fusions) (Hepatitis C virus genotype 1b, UniProt Q9WMX2); assay type: binding, HCV genotype 1b, isolate con1; settings: human protein as prey
T1 construct: expressed in transfected cells; host or cells: Saccharomyces cerevisiae MAV203 (IMAP1) / AH109 (IMAP2)

[2] = system: HCV ORFs (Gal4-DB fusions); assay type: binding, HCV genotype 1b, isolate con1; settings: human protein listed by gene symbol; the value names the HCV protein it interacts with
HCV proteins = target: T2, HCV proteins (Hepatitis C virus genotype 1b, UniProt Q9WMX2); assay: Validation by Y2H pairwise matrices; assay type: binding;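 note: yeast two-hybrid pairwise tests of interactions first found in Y2H screens of HCV bait proteins against human cDNA libraries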
T2 construct: expressed in transfected cells
Experimental: A comprehensive interactome map between HCV and cellular proteins was generated by Y2H screens. Twenty seven constructs encoding full-length HCV mature proteins or discrete domains were cloned using a recombination-based cloning system (10) (FIG. 6). Four independent screens were performed with each HCV bait protein, probing two distinct human cDNA libraries (Supplementary Methods). […] Two validation methods were used to assess the confidence of the IMAP Y2H dataset.

[3] = validation of interaction with HCV protein NS3
[4] = validation of interaction with HCV protein CORE
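Throughout, for IMAP Y2H IMAP1 (number of IST): yeast two-hybrid screens using HCV genotype 1b proteins fused to Gal4-DB as baits against prey cDNA libraries from human spleen and foetal brain, IMAP1 via transformation and IMAP2 via mating.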
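Throughout, for Interaction with viral protein: yeast two-hybrid screens using HCV genotype 1b proteins fused to Gal4-DB as baits against prey cDNA libraries from human spleen and foetal brain, IMAP1 via transformation and IMAP2 via mating.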

| Molecule | IMAP Y2H IMAP1 (number of IST) ([1]; HCV protein NS3 as bait) | Interaction with viral protein [2] | Y2H matrices (HCV proteins; [3]) | IMAP Y2H IMAP1 (number of IST) ([1]; HCV protein CORE as bait) | Y2H matrices (HCV proteins; [4]) |
| --- | --- | --- | --- | --- | --- |
| TRIM23 (protein, UniProt P36406 1-574, looked up) E3 ubiquitin-protein ligase …: MATLVVNKLGAGVDSGRQGSRGTAVVKVLECGVCEDVFSLQGDKVPRLLLCGHTVCHDCLTRLPLHGRAIRCPFDRQVTDLGDSGVWGLKKNFALLELLERLQNGPIGQYGAAEESIGISGESIIRCDEDEAHLASVYCTVCATHLCSECSQVTHSTKTLAKHRRVPLADKPHEKTMCSQHQVHAIEFVCLEEGCQTSPLMCCVCKEYGKHQGHKHSVLEPEANQIRASILDMAHCIRTFTEEISDYSRKLVGIVQHIEGGEQIVEDGIGMAHTEHVPGTAENARSCIRAYFYDLHETLCRQEEMALSVVDAHVREKLIWLRQQQEDMTILLSEVSAACLHCEKTLQQDDCRVVLAKQEITRLLETLQKQQQQFTEVADHIQLDASIPVTFTKDNRVHIGPKMEIRVVTLGLDGAGKTTILFKLKQDEFMQPIPTIGFNVETVEYKNLKFTIWDVGGKHKLRPLWKHYYLNTQAVVFVVDSSHRDRISEAHSELAKLLTEKELRDALLLIFANKQDVAGALSVEEITELLSLHKLCCGRSWYIQGCDARSGMGLYEGLDWLSRQLVAAGVLDVA | 5 | NS3 | + | – | – |
| TBC1D2B (protein, UniProt Q9UPU7 1-963, looked up) TBC1 domain family member 2B: MPGAGARAEEGGGGGEGAAQGAAAEPGAGPAREPARLCGYLQKLSGKGPLRGYRSRWFVFDARRCYLYYFKSPQDALPLGHLDIADACFSYQGPDEAAEPGTEPPAHFQVHSAGAVTVLKAPNRQLMTYWLQELQQKRWEYCNSLDMVKWDSRTSPTPGDFPKGLVARDNTDLIYPHPNASAEKARNVLAVETVPGELVGEQAANQPAPGHPNSINFYSLKQWGNELKNSMSSFRPGRGHNDSRRTVFYTNEEWELLDPTPKDLEESIVQEEKKKLTPEGNKGVTGSGFPFDFGRNPYKGKRPLKDIIGSYKNRHSSGDPSSEGTSGSGSVSIRKPASEMQLQVQSQQEELEQLKKDLSSQKELVRLLQQTVRSSQYDKYFTSSRLCEGVPKDTLELLHQKDDQILGLTSQLERFSLEKESLQQEVRTLKSKVGELNEQLGMLMETIQAKDEVIIKLSEGEGNGPPPTVAPSSPSVVPVARDQLELDRLKDNLQGYKTQNKFLNKEILELSALRRNAERRERDLMAKYSSLEAKLCQIESKYLILLQEMKTPVCSEDQGPTREVIAQLLEDALQVESQEQPEQAFVKPHLVSEYDIYGFRTVPEDDEEEKLVAKVRALDLKTLYLTENQEVSTGVKWENYFASTVNREMMCSPELKNLIRAGIPHEHRSKVWKWCVDRHTRKFKDNTEPGHFQTLLQKALEKQNPASKQIELDLLRTLPNNKHYSCPTSEGIQKLRNVLLAFSWRNPDIGYCQGLNRLVAVALLYLEQEDAFWCLVTIVEVFMPRDYYTKTLLGSQVDQRVFRDLMSEKLPRLHGHFEQYKVDYTLITFNWFLVVFVDSVVSDILFKIWDSFLYEGPKVIFRFALALFKYKEEEILKLQDSMSIFKYLRYFTRTILDARKLISISFGDLNPFPLRQIRNRRAYHLEKVRLELTELEAIREDFLRERDTSPDKGELVSDEEEDT | 1 | NS3 | + | – | – |
| PLSCR1 (protein, UniProt O15162 1-318, looked up) Phospholipid scramblase 1: MDKQNSQMNASHPETNLPVGYPPQYPPTAFQGPPGYSGYPGPQVSYPPPPAGHSGPGPAGFPVPNQPVYNQPVYNQPVGAAGVPWMPAPQPPLNCPPGLEYLSQIDQILIHQQIELLEVLTGFETNNKYEIKNSFGQRVYFAAEDTDCCTRNCCGPSRPFTLRIIDNMGQEVITLERPLRCSSCCCPCCLQEIEIQAPPGVPIGYVIQTWHPCLPKFTIQNEKREDVLKISGPCVVCSCCGDVDFEIKSLDEQCVVGKISKHWTGILREAFTDADNFGIQFPLDLDVKMKAVMIGACFLIDFMFFESTGSQEQKSGVW | – | CORE | – | 1 | + |
| USHBP1 (protein, UniProt Q8N6Y0 1-703, looked up) Harmonin-binding protein …: MSARATRPRSRRGRHAPPGELDPVAESSEEVEAASGSSKPSFAPPPVSSGLEQLGPMEEVSGQGLGSRTDKKMDGGSGRELASAPEVPHKPAVEAHQAPEAALQYKETVPPGNGAPDVFQTLQHTLSSLEAAAAAWRHQPPSHSGPMEFEGTSEGGAGSLGKQEGAGSCQREAARLAERNAWLRLALSSREDELVRTQASLEAIRAEKETLQKEVQELQDSLLRLEPCPHLSHNQAGGSGSGSSSSEADREPWETQDSFSLAHPLLRRLRSHSSTQILGSLPNQPLSPEMHIMEAQMEQLRGSIEKLKCFNRLLSAVLQGYKGRCEGLSMQLGQREAEATALHLALQYSEHCEEAYRVLLALREADSGAGDEAPMSDLQAAEKEAWRLLAQEEAAMDAGAQQNPQPSPEGSSVDKPTPQEVAFQLRSYVQRLQERRSLMKILSEPGPTLAPMPTVPRAEAMVQAILGTQAGPALPRLEKTQIQQDLVAAREALADLMLRLQLVRREKRGLELREAALRALGPAHVLLLEQLRWERAELQAGGANSSGGHSSGGGSSGDEEEWYQGLPAVPGGTSGIDGGQVGRAWDPEKLAQELAASLTRTLDLQEQLQSLRRELEQVAQKGRARRSQSAELNRDLCKAHSALVLAFRGAHRKQEEQRRKLEQQMALMEAQQAEEVAVLEATARALGKPRPPLPPPQLGDTFL | 1 | NS3 | + | – | – |
| SLC31A2 (protein, UniProt O15432 1-143, looked up) Protein SLC31A2: MAMHFIFSDTAVLLFDFWSVHSPAGMALSVLVLLLLAVLYEGIKVGKAKLLNQVLVNLPTSISQQTIAETDGDSAGSDSFPVGRTHHRWYLCHFGQSLIHVIQVVIGYFIMLAVMSYNTWIFLGVVLGSAVGYYLAYPLLSTA | – | CORE | – | 1 | + |
| SSX2IP (protein, UniProt Q9Y2D8 1-614, looked up) Afadin- and …: MGDWMTVTDPGLSSESKTISQYTSETKMSPSSLYSQQVLCSSIPLSKNVHSFFSAFCTEDNIEQSISYLDQELTTFGFPSLYEESKGKETKRELNIVAVLNCMNELLVLQRKNLLAQENVETQNLKLGSDMDHLQSCYSKLKEQLETSRREMIGLQERDRQLQCKNRNLHQLLKNEKDEVQKLQNIIASRATQYNHDMKRKEREYNKLKERLHQLVMNKKDKKIAMDILNYVGRADGKRGSWRTGKTEARNEDEMYKILLNDYEYRQKQILMENAELKKVLQQMKKEMISLLSPQKKKPRERVDDSTGTVISDVEEDAGELSRESMWDLSCETVREQLTNSIRKQWRILKSHVEKLDNQVSKVHLEGFNDEDVISRQDHEQETEKLELEIQQCKEMIKTQQQLLQQQLATAYDDDTTSLLRDCYLLEEKERLKEEWSLFKEQKKNFERERRSFTEAAIRLGLERKAFEEERASWLKQQFLNMTTFDHQNSENVKLFSAFSGSSDWDNLIVHSRQPQKKPHSVSNGSPVCMSKLTKSLPASPSTSDFCQTRSCISEHSSINVLNITAEEIKPNQVGGECTNQKWSVASRPGSQEGCYSGCSLSYTNSHVEKDDLP | 3 | NS3 | + | – | – |
| THAP1 (protein, UniProt Q9NVV9 1-213, looked up) THAP domain-containing …: MVQSCSAYGCKNRYDKDKPVSFHKFPLTRPSLCKEWEAAVRRKNFKPTKYSSICSEHFTPDCFKRECNNKLLKENAVPTIFLCTEPHDKKEDLLEPQEQLPPPPLPPPVSQVDAAIGLLMPPLQTPVNLSVFCDHNYTVEDTMHQRKRIHQLEQQVEKLRKKLKTAQQRCRRQERQLEKLKEVVHFQKEKDDVSERGYVILPNDYFEIVEVPA | 1 | NS3 | + | – | – |

From US20110091994A1, “Methods for Screening Compounds for Treating and/or Preventing an Hepatitis C Virus Infection” (priority 2008, published 2011)
